From patent publication US7294472B2, “Method for identifying modulators of G protein coupled receptor signaling” (Caden Biosciences, priority 2001, dated 2007)
Where no end group is shown, it is not given here.

How the values were obtained:
β2 adrenergic receptor = β2 adrenergic receptor (Homo sapiens, UniProt P07550); assay: ELISA binding of peptides panned from the Gs library to β2 adrenergic receptor; conditions: recombinant reconstituted β2 adrenergic receptor; peptides selected from Gs library
Excerpt: The methods of Example 7 were repeated using recombinant reconstituted β2 adrenergic receptor panned with the Gs Library.

rhodopsin [1] = molecular target: T1, rhodopsin (Bos taurus, UniProt P02699); assay: ELISA binding of lysates of peptides panned from the Gt library to rhodopsin; parameters: species or system bovine; conditions: OD450 for wells with receptor minus OD450 for wells with no receptor
T1 construct: Bovine rod outer segments (rhodopsin-containing membranes) were prepared from fresh retinas; from tissue; host or cells: bovine retina, rod outer segment membranes (EDTA- and urea-washed)
Procedure: The panning process is illustrated in FIG. 1. For screening of the library by “panning,” rhodopsin receptors prepared according to Example 5 were immobilized directly on Immulon 4 (Dynatech) microtiter wells (0.1-1 μg of protein per well) in cold 35 mM HEPES, pH 7.5, containing 0.1 mM EDTA, 50 mM KCl and 1 mM dithiothreitol (HEK/DTT). After shaking for one hour at 4° C., unbound membrane fragments were washed away with HEK/DTT. The wells were blocked with 100 μl 2% BSA in HEKL (35 mM HEPES; 0.1 mM EDTA; 50 mM KCl; 0.2 M α-lactose; pH 7.5, with 1 mM DTT). For rounds 1 and 2, BSA was used for blocking; in later rounds 1% nonfat dry milk was used. For the first round of panning, about 24 wells of a 96-well plate were used. In subsequent rounds, 8 wells with receptor and 8 wells without receptor were prepared.
The Gt library was thawed (2 mL aliquot) and mixed with 6 mL lysis buffer on ice. Lysis buffer contains 4.25 mL HE (25 mM HEPES: 0.1 mM EDTA; pH 7.5); 1 mL 50% glycerol; 750 μL 10 mg/mL protease-free BSA in HE; 10 μL 0.5 M DTT; and 6.25 μL 0.2 M PMSF. Freshly prepared lysozyme solution (150 μL 10 mg/mL lysozyme in cold HE) was added and the tube was gently inverted several times and incubated on ice for no more than two minutes. The extent of lysis is evidenced by an increase in viscosity that can be observed by noting the slow migration of bubbles to the top of the tube after mixing. Lysis was terminated by mixing in 2 mL 20% lactose and 250 μL 2M KCl. The tube was centrifuged immediately at 13,000×g for 15 minutes at 4° C. and the supernatant transferred to a new tube. A small aliquot of 0.1% (the PRE sample) was saved in a separate, labeled tube. […] Immediately thereafter, the crude bacterial lysate from the peptide library (200 μL) was added to each well and allowed to shake gently for one hour at 4° C. For round 2, this same procedure was followed. In round 3, the amount of lysate used was reduced to 100 μL. In subsequent rounds, the lysate was diluted 1:10 in HEKL/BSA. In all rounds, 5-10 μL 200 μM native peptide was added to the wells to chase off peptides that were bound with lower affinity.
The methods of Example 7 repeated using rhodopsin screening with a Gt library. To identify the rank order of binding, the lysates were analyzed using ELISA methods in which the secondary antibody was conjugated to HRP. Following addition of the substrate, the microplate was read using a spectrophotometer. The binding is the OD450 for wells with receptor—OD450 for wells in which no receptor (control wells with empty lipid vesicles).

[2] = molecular target: T2, light-activated rhodopsin (Bos taurus, UniProt P02699); assay: ELISA binding of MBP-peptide fusion proteins to light-activated rhodopsin; parameters: species or system bovine; conditions: for EC50 / ELISA OD450: MBP-high affinity peptide fusion proteins; for EC50: read-out: MII binding EC50; for ELISA OD450: absorbance at OD450 in a panning ELISA
T2 construct: Bovine rod outer segments (rhodopsin-containing membranes) were prepared from fresh retinas; from tissue; host or cells: bovine retina, rod outer segment membranes (EDTA- and urea-washed)
Excerpt: The entire population of peptide-coding sequences identified in round 4 of panning (see Example 7) was transferred from pJS142 to pELM3 (New England Biolabs). This plasmid is a pMal-c2 derivative with a modified polylinker, inducible by isopropyl β-thiogalacto-pyranoside and containing the E. coli malE gene with a deleted leader sequence and leads to cytoplasmic expression of MBP fusion proteins. The MBP-carboxyl terminal peptide analog fusion proteins were expressed in E. coli.
For the assay, in the dark, 1 μg/well of ROS membranes (rhodopsin) as described in Example 5 was directly immobilized on microtiter wells in cold HEK/DTT for one hour at 4° C. The wells were rinsed, blocked with 1% BSA in HEK/DTT for one hour at 4° C. and rinsed again. Bound rhodopsin was activated by exposure to light for 5 minutes on ice before addition of the MBP fusion proteins (crude bacterial lysates were diluted 1:50 in HEK with 1 μM dithiothreitol; purified proteins were used at 0.2-120 nM). The MBP-Gαt340-350K341R (pELM17) fusion protein and MBP with linker sequence only (pELM6) were present in control wells at 50 nM final concentration. After 30 minutes, wells were washed and rabbit anti-MBP antibody (New England Biolabs) was added. The anti-MBP antibody was used at a 1:1000 dilution for crude lysates and a 1:3000 dilution for purified proteins. After 30 minutes, wells were rewashed and goat anti-rabbit antibody conjugated to horseradish peroxidase (1:7500 dilution for crude lysates; 1:10,000 dilution for purified proteins; Kierkagaard & Perry Laboratories) was added. After 30 minutes, the plate was washed four times with PBS containing 0.05% Tween™20. Horseradish peroxidase substrate (100 μl) was added and color was allowed to develop for about 20 minutes. The reaction was stopped by addition of 100 μl 2N sulfuric acid. Values indicate absorbance at OD450. The positive control for the assay was pELM 17, which encodes the MBP fusion protein Gαt340-350K341R. pELM6, which expresses MBP protein fused to a linker sequence only, served as the negative control. “No lysate” control wells were included to reflect any intrinsic, non-specific binding within the assay. […]

rhodopsin [3] = molecular target: T1, rhodopsin; assay: "extra MII" assay: stabilization of metarhodopsin II; assay type: biochemical, bovine; conditions: for EC50: MBP-high affinity peptide fusion proteins
Excerpt: Rhodopsin can be measured spectrophotometrically in many of its conformational states. The high affinity, biologically active rhodopsin state can be easily differentiated from its precursor, MI, by the “extra” MII assay. See Example 35. This assay relies on the observation that under conditions of high pH and low temperature, MII is stabilized in the presence of Gt and can be spectrophotometrically measured. The ability of the C-terminal peptide to stabilize Meta II in the same manner as the heterotrimeric Gt, provides the tools to investigate the structural basis of the interaction of G proteins with the agonist binding sites of activated receptors.
For the “extra MII” assay, EDTA-washed rhodopsin (Example 5; 5 μM) is incubated in a 50 mM HEPES buffer, pH 8.2, with 100 mM NaCl, 1 mM MgCl2, and 1 mM DTT at 5.3° C., in the absence or presence of varying concentrations of Gt340-350 analogs or Gt. The sample is maintained at 5.4° C. using a water-jacketed and thermostated circulator cuvette holder in an SLM Aminco DW2000 spectrophotometer at 390 and 440 nm. A flash of light bleaching 10% of the rhodopsin is presented and after a 1 min incubation, a second spectrum is measured and the difference in spectrum calculated. “Extra” MII is calculated as the difference between the absorbance at 390 and 440. Dose response curves of MII stabilization by αt340350 (λ), mutant α340-350K341L(ν), and heterotrimeric Gt (v) were analyzed by non-linear regression using the program GraphPad PRISM and are shown in FIG. 23.
EDTA-washed rhodopsin (5 μM) was incubated in a 50 mM HEPES buffer, pH 8.2, with 100 mM NaCl, 1 mM MgCl2, and 1 mM DTT at 5.3° C., and “extra” MII was measured. For compounds that enhanced MBP-8 binding over 25% using the color coded readout, dose studies were performed to generate EC50 curves. Table XXII below provides the calculated EC50 for metarhodopsin II stabilization of each compound.

PAR1 = molecular target: T3, PAR1 (Homo sapiens, UniProt P25116); assay: ELISA binding of purified MBP clones to SF9 membranes expressing PAR1 or muscarinic M1 receptor; parameters: expressed in transfected cells; host or cells: membranes of Sf9 insect cells infected with ThR/pBluebac recombinant virus
T3 sequence (P25116 22-425): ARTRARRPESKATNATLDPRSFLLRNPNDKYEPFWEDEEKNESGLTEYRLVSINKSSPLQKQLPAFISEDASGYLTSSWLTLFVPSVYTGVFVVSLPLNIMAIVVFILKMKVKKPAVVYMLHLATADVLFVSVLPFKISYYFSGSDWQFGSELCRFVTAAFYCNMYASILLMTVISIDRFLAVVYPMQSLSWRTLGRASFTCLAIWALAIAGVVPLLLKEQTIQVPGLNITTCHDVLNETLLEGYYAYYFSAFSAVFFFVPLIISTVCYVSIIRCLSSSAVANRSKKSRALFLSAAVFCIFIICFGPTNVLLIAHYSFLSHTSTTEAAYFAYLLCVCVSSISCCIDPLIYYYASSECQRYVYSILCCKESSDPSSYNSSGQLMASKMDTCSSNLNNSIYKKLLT
Procedure: To identify high affinity peptides that bind PAR1, membranes prepared from mammalian cells (Chinese hamster ovary) overexpressing PAR1 were panned with the G11 peptide library. ELISA binding affinity results of selected clones are shown in FIG. 9 for their binding to membranes prepared from SF9 cells expressing either PAR1 or the Gq-coupled muscarinic M1 receptor. To quantitate the binding, purified MBP clones were analyzed using ELISA methods in which the secondary antibody was conjugated to HRP. The binding for the control MBP-Gq fusion protein is shown. The data are the average of two separate experiments done in duplicate.

T2 sequence (P02699 whole entry, the tested form may be a part): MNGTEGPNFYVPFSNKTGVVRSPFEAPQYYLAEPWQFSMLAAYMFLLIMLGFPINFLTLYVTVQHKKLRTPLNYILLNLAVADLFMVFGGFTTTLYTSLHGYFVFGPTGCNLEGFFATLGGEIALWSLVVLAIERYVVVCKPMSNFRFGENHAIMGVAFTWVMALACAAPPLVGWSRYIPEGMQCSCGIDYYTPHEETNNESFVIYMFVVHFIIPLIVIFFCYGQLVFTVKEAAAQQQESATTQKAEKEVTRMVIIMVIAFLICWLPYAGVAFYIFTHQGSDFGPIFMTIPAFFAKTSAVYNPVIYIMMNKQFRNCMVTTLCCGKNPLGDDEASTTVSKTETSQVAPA
T1 sequence (P02699 whole entry): as the sequence (P02699 whole entry, the tested form may be a part) above

Sequence	ELISA (β2 adrenergic receptor)	ELISA (rhodopsin [1])	further results
DRMHLWRFGLL [AG11]	.192		
ERLHRRLFQLH [BAR8]	.047		
HRRHIGEFALL [BAR11]	.048		
ICENLKDCGLF [Clone L6]		.342	
ICENLKDCGLF [MBP-10]			EC50 [2]: 42 nM; ELISA OD450 [2]: .36; EC50 (rhodopsin [3]): 5400 nM
IKENLKDCGLF [Gt, reference compound]			EC50 [2]: 6000 nM; ELISA OD450 [2]: .01; EC50 (rhodopsin [3]): > 100000 nM
ILENLKDCGLF [Clone L3]		.839	
ILESLNECGLF [Clone L34]		.603	
ILQNLKDCGLF [Clone L17]		.600	
IRGSLKDCGLF [Clone L20]		.423	
ISKNLRDCGLL [Clone L13]		.187	
IVKNLEDCGLF [Clone L8]		.257	
LHLNLKEYNLV (also: fused to MBP) [PAR-33, MBP clone, linker LSTN]			specificity (in words) (PAR1; PAR1 versus Gq-coupled muscarinic M1 receptor): low specificity; binding affinity for PAR1 (in words) (PAR1; purified MBP clones, SF9 membranes): low affinity
LLDILKDCGLF [Clone L38]		.823	
LLENLRDCGMF [Peptide 8]			EC50 [2]: 7.8 nM; ELISA OD450 [2]: .54; EC50 (rhodopsin [3]): 940 nM
LLENLRDCGMI [MBP-8]			binding affinity to light-activated rhodopsin (in words) [2]: high affinity; stabilization of MII (in words) (rhodopsin [3]): stabilized MII
LQQVLKDCGLL [MBP-9]			EC50 [2]: 10 nM; ELISA OD450 [2]: .35; EC50 (rhodopsin [3]): 1050 nM
LRENLKDCGLL [Clone L14]		.833	
MLDNLKACGLF [Clone L4]		.908	
MLDNLKDCGLF [Clone L7]		.525	

Sequence	ELISA (β2 adrenergic receptor)	ELISA (rhodopsin [1])	further results
MLENLKDCGLF [MBP-18]			binding affinity to light-activated rhodopsin (in words) [2]: even higher binding affinities than did MBP-8; EC50 [2]: 3.8 nM; ELISA OD450 [2]: .58; EC50 (rhodopsin [3]): 1240 nM
MLKNLKDCGMF [MBP-24]			binding affinity to light-activated rhodopsin (in words) [2]: even higher binding affinities than did MBP-8; EC50 [2]: 6.6 nM; ELISA OD450 [2]: .61; EC50 (rhodopsin [3]): 490 nM
NCMKFRSCGLF [BAR20]	.079		
PCIQLGQYESF [BAR40]	.028		
PRPRLLRFKIP [AG19]	.361		
QGEHLRQLQLQ [AG2]	.330		
QGMQLRRFKLR [AG1]	.435		
QRIHRRPFKFF [BAR1]	.218		
QRLHLRGYEFL [AG13]	.054		
QRLRLGPDELF [AG4]	.291		
QRLRLRKYRLF [BAR31]	.026		
QRMNLGPCGLL [AG18]	.155		
QRMPLRLFEFL [AG3]	.217		
QRMPLRQYELL [AG9]	.190		
QRVHLRQDELL [BAR2]	.197		
QWMDLRQHELL [BAR3]	.185		
RWLHWQYRGRG [AG20]	.431		
VLEDLKSCGLF [MBP-23]			EC50 [2]: 20 nM; ELISA OD450 [2]: .66; EC50 (rhodopsin [3]): 3500 nM
VRDILKDCGLF [Clone L15]		.621	
